Assay results from paper PMC4702109, “Osmotic stress induces the phosphorylation of WNK4 Ser575 via the p38MAPK-MK pathway” (Scientific Reports, 2016).
Values belong to the binder of their own block, whether it stands above or below them. Where no end group is shown, it is not given here. [ ]: non-standard residue; d: D form. pS = N[C@@H](COP(=O)(O)O)C(=O)O

Target: T1, GST-hKLHL3 (290–587) (human, UniProt Q9UH77 290-587)
T1 construct: Kelch-like protein 3 (KLHL3), human, residues 290-587; End of the tag read from the construct's name; also called GST-KLHL3 (290–587); GST-KLHL3; source: E. coli BL21, purified (glutathione-Sepharose column, eluted with glutathione); not shown: GST, N-terminal, kept
T1 sequence (looked up): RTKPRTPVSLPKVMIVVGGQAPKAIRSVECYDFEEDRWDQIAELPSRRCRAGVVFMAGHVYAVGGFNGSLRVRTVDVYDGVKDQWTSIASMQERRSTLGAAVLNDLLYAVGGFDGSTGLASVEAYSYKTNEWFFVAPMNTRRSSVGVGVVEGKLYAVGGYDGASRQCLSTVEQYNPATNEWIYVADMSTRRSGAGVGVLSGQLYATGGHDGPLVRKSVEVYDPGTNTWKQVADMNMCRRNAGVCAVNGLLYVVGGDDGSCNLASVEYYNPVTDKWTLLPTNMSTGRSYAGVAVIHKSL
Assay: pull-down; FLAG-tagged synthetic WNK4 (557–580) peptides (1 μg) held on anti-FLAG antibody beads; GST-hKLHL3 (290–587) incubated 6 hours, washed with IP lysis buffer; immunoblot; two amounts of GST-KLHL3 (3-fold apart)
Details: both partners purified

binding result: binds
B1: WNK4 (557–580)-WT peptide (peptide, UniProt Q96J92 557-580, looked up)
peptide: EPEEPEADQHQPFLFRHASYSSTT
notes: Held on anti-FLAG antibody beads; also called unphosphorylated peptide; source: synthetic peptide (bought: Eurofins Genomics)

binding result: binds
B2: WNK4 (557–580)-pS575 peptide (peptide, UniProt Q96J92 557-580, looked up)
peptide: EPEEPEADQHQPFLFRHA[pS]YSSTT
modifications: also: FLAG tag, position not given here
notes: Held on anti-FLAG antibody beads; also called peptide phosphorylated at Ser575; source: synthetic peptide (bought: Eurofins Genomics)
